Experimental findings from article PMC2877039 (Developmental cell, 2010) are described below.

Sequences and labels used below:
T1: His6-tagged full-length Sec15 protein (yeast, UniProt P22224 1-910)
T1 sequence (looked up): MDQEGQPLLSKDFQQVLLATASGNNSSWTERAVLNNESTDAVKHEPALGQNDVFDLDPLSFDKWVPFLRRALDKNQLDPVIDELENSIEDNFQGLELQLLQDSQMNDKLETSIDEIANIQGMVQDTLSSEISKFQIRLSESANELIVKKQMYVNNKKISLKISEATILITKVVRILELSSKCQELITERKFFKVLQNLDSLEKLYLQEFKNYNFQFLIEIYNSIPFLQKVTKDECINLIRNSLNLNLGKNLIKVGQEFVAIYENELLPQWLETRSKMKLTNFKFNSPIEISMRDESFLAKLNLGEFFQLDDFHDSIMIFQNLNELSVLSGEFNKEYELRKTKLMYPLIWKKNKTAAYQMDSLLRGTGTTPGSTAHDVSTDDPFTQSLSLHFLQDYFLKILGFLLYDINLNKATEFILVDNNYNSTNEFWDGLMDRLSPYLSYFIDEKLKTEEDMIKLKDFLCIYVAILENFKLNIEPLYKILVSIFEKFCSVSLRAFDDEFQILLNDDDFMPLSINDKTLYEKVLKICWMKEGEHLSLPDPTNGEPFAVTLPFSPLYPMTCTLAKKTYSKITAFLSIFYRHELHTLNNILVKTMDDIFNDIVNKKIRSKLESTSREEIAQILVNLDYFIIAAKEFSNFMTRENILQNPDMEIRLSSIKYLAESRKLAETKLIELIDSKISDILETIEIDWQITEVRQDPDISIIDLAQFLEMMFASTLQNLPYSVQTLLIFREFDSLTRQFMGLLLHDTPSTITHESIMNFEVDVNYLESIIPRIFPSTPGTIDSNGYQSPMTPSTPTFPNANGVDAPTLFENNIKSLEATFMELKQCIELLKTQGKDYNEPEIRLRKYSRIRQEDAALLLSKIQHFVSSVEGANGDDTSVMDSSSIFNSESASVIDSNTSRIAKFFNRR

B1: Sec15p C-terminal fragment (a.a. 559–910) (domain or fragment, yeast, UniProt P22224 559-910, looked up)
chain: MTCTLAKKTYSKITAFLSIFYRHELHTLNNILVKTMDDIFNDIVNKKIRSKLESTSREEIAQILVNLDYFIIAAKEFSNFMTRENILQNPDMEIRLSSIKYLAESRKLAETKLIELIDSKISDILETIEIDWQITEVRQDPDISIIDLAQFLEMMFASTLQNLPYSVQTLLIFREFDSLTRQFMGLLLHDTPSTITHESIMNFEVDVNYLESIIPRIFPSTPGTIDSNGYQSPMTPSTPTFPNANGVDAPTLFENNIKSLEATFMELKQCIELLKTQGKDYNEPEIRLRKYSRIRQEDAALLLSKIQHFVSSVEGANGDDTSVMDSSSIFNSESASVIDSNTSRIAKFFNRR
B2: GST-Sec2p (wild type) (natural protein, yeast, UniProt P17065 1-759, looked up)
chain: MDASEEAKRVSIQVTSLSTQLIESVDKQSHLEEQLNKSLKTIASQKAAIENYNQLKEDYNTLKRELSDRDDEVKRLREDIAKENELRTKAEEEADKLNKEVEDLTASLFDEANNMVADARKEKYAIEILNKRLTEQLREKDTLLDTLTLQLKNLKKVMHSLDNESTVTNNSNRYSTILSDSATSSSTSLNKVPTSYSLASQDIYSGIVYSPSISSIRYDISLYNEFLKFVAALPRCENIKATSTESKLIRRLVNDEIQPILKIDNASGIGWLVKKTLLSLIIDGLVVVEPLSGVNATYQIGYNSSSPAKQATSNMPKMFKFPLDSPPVAVHAACSFCGESRDDIIEHARMYILKTLHKTDDGKEQVTNTYPLCHWCLLKLRQTCEIFAFLRSLKVGAWHLEKLTTQNITKEDLEKFSEVTKHTKRDGRVSSQDKKTKRLSFMAGLGINSSTKNKPKMEIFSSETNAKPGQPTTNIQRAWLQLCKLRCILHWTHIGIWAVDDSISSKIGPLVEDDSDEDQNDAISVRLQDKALWKQDAKRPFSSSSAEESQKSDAFDFESGDMENEITGESSSDESSSDGSSTDNSTADSSSEDESSLADSTTSSADSSSPESIDNGEGDDTVTKDDKSSIKSANNNEENSDCGDKKGRSIIKKKAPQRKIQKKKLLQDLDDLEEQFREESAIDQTEFENAESNVKQNISSKRASSGDENSKKDNNEKTLKTNLTIGDKTQEQIGENSPSSGLHASSSNDDNFDDAQEQQ

The experiment “GST-Sec2p (wild type)” deals with B2. The experiment in a line: pull-down.
The target of experiment [1] is T1, His6-tagged full-length Sec15 protein. The experiment in a line: pull-down.

As to B1, the binding result with GST-Sec2p (wild type) is given as “binds”. With B2, the binding result in experiment [1] is “binds”.
